Molecular target: T1, Paeniclostridium sordellii lethal toxin TcsL, receptor binding domain (RBD) (Paeniclostridium sordellii, UniProt Q46342)
T1 sequence: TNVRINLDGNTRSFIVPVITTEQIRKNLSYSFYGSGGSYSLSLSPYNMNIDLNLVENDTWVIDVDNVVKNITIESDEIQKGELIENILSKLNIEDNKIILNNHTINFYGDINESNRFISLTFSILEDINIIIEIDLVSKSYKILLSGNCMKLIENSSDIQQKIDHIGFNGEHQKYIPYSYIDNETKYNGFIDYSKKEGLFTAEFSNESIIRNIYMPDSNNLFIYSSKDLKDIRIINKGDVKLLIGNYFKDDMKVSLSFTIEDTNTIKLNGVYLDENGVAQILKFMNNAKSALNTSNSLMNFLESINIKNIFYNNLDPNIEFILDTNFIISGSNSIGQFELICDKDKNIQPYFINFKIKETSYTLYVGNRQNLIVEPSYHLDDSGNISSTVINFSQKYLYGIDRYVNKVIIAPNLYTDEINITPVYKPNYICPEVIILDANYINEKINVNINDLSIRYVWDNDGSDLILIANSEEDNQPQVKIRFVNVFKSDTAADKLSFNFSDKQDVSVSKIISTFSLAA
Assay: SPR

B1: B4, ProteinMPNN-optimized de novo designed TcsL-binding miniprotein (designed binder)
chain: MSGTEEIIKEIKKMKEKGEKASSIIDLLKKAGYSEIAKKAELAALKSENMTEAAAEKAIEELK
Kd: 0.057 nM

Source: publication doi:10.1101/2024.08.23.608890 (bioRxiv, 2024)
